# B1: AsHPPDm-F372A-02: nucleotide sequence encoding Avena sativa HPPD with F372A; vector DBN11728 (nucleic acid)
# DNA: ATGCCACCTACTCCAGCTACAGCTACTGGTGCTGCTGCTGCTGCCGTTACTCCTGAGCACGCTGCCAGGTCATTCCCCAGGGTGGTTCGCGTGAACCCCAGATCTGATAGGTTCCCAGTTCTGAGCTTCCACCATGTTGAGCTGTGGTGCGCTGATGCTGCTTCTGCTGCTGGCAGGTTCTCTTTCGCTCTTGGTGCTCCACTCGCTGCTAGATCTGATCTGTCTACAGGAAATAGCGCTCATGCCTCACTCCTGCTTCGCTCAGGTGCTTTGGCCTTCCTCTTCACCGCTCCATATGCTCCCCCACCTCAGGAGGCTGCTACTGCTGCTGCTACAGCCTCCATTCCAAGCTTCTCAGCTGATGCCGCTAGAACCTTCGCTGCTGCTCATGGACTTGCCGTGAGGTCTGTTGGTGTTCGCGTGGCTGATGCTGCTGAGGCTTTCAGAGTTTCCGTTGCCGGCGGAGCTAGGCCAGCTTTCGCTCCTGCTGATTTGGGACATGGTTTCGGCCTGGCTGAGGTTGAGCTTTACGGTGACGTGGTTCTCCGCTTCGTGTCTTACCCAGATGAGACTGACCTGCCTTTCCTTCCCGGCTTCGAGAGAGTTTCCTCTCCTGGTGCCGTGGATTACGGCCTGACAAGGTTCGACCACGTGGTTGGAAACGTTCCCGAGATGGCTCCAGTGATCGATTACATGAAGGGCTTCCTTGGATTCCATGAGTTCGCCGAGTTCACTGCTGAGGACGTGGGAACCACTGAGTCCGGTTTGAACTCTGTGGTTCTCGCCAACAATTCTGAGGCTGTTTTGCTCCCTCTGAATGAGCCTGTGCATGGAACCAAGAGGAGAAGCCAGATTCAAACTTACCTGGAGTACCACGGTGGCCCTGGAGTTCAGCATATCGCCCTTGCTTCTAATGATGTGTTGCGCACACTCAGAGAGATGCGCGCCAGAACCCCCATGGGAGGTTTCGAGTTCATGGCCCCACCACAGGCTAAGTACTACGAGGGCGTTAGAAGGATTGCTGGAGACGTGTTGAGCGAGGAGCAGATCAAGGAGTGCCAAGAGCTGGGTGTTCTTGTGGATAGGGATGACCAGGGCGTTCTGCTTCAAATTGCCACTAAGCCAGTGGGCGACCGCCCTACATTCTTCCTTGAGATGATTCAAAGAATCGGCTGCATGGAGAAGGATGAGGTTGGACAGGAGTACCAAAAGGGCGGATGCGGTGGCTTCGGAAAGGGTAACTTCAGCGAGTTGTTCAAGTCAATCGAGGACTACGAGAAGAGCCTCGAGGTGAAGCAGTCAGTGGTTGCCCAAAAGTCCTGA
# modifications: AsHPPDm-F372A-02 Nucleotide Sequence
# notes: vector DBN11728
# What was measured:
# Assay type in all cases: in vivo
# [1] = system: Arabidopsis thaliana T1 plants; assay: Mesotrione tolerance of transgenic Arabidopsis thaliana T1 plants (spray, bleached leaf area grade, damage score); design: Scores: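 damage score 0-100 computed as Σ(N×S)/(T×M)×100 over grades 0-3 with higher meaning more damage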; conditions: for Classification and statistics of the grade of pesticide damage Grade 0 / Classification and statistics of the grade of pesticide damage Grade 1 / Classification and statistics of the grade of pesticide damage Grade 2 / Classification and statistics of the grade of pesticide damage Grade 3: number of plants in grade; for Classification and statistics of the grade of pesticide damage: Grade 0 / Classification and statistics of the grade of pesticide damage: Grade 1 / Classification and statistics of the grade of pesticide damage: Grade 2 / Classification and statistics of the grade of pesticide damage: Grade 3: number of plants
# Method in brief: (§1)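 Damage was assessed by bleaching grade (0 none; 1 <50%; 2 >50%; 3 100% of leaf area) one week after spraying. Sprays on 18-day-old T1 and wild-type plants used field-rate multiples: topramezone 25–200, isoxaflutole 35–280, mesotrione 52.5–420 g ai/ha.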
# [2] = system: Arabidopsis thaliana T1 plants; assay: Isoxaflutole tolerance of transgenic Arabidopsis thaliana T1 plants (spray, bleached leaf area grade, damage score); conditions: for Classification and statistics of the grade of pesticide damage Grade 0 / Classification and statistics of the grade of pesticide damage Grade 1 / Classification and statistics of the grade of pesticide damage Grade 2 / Classification and statistics of the grade of pesticide damage Grade 3: number of plants in grade; for Classification and statistics of the grade of pesticide damage: Grade 0 / Classification and statistics of the grade of pesticide damage: Grade 1 / Classification and statistics of the grade of pesticide damage: Grade 2 / Classification and statistics of the grade of pesticide damage: Grade 3: number of plants;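 on Scores: Weighted damage index from 0 to 100 where higher means more damage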
# Method in brief: as §1
# [3] = system: Arabidopsis thaliana T1 plants; assay: Topramezone tolerance of transgenic Arabidopsis thaliana T1 plants (spray, bleached leaf area grade, damage score); conditions: for Classification and statistics of the grade of pesticide damage: Grade 0 / Classification and statistics of the grade of pesticide damage: Grade 1 / Classification and statistics of the grade of pesticide damage: Grade 2 / Classification and statistics of the grade of pesticide damage: Grade 3: number of plants; for Classification and statistics of the grade of pesticide damage: Grade 0 / Classification and statistics of the grade of pesticide damage: Grade 1 / Classification and statistics of the grade of pesticide damage: Grade 2 / Classification and statistics of the grade of pesticide damage: Grade 3 / Scores / Resistance evaluation: 7 DAT, Table 1; for Scores: pesticide damage score 0-100
# Text: T1 transformants were initially selected from the untransformed seeds using a glufosinate selection scheme. The Arabidopsis thaliana T1 plants (AsHPPD-02) into which the AsHPPD-02 nucleotide sequence was introduced, the Arabidopsis thaliana T1 plants (AsHPPDm-F372A-02) into which the AsHPPDm-F372A-02 nucleotide sequence was introduced, the Arabidopsis thaliana T1 plants (AsHPPDm-F383W-02) into which the AsHPPDm-F383W-02 nucleotide sequence was introduced, the Arabidopsis thaliana T1 plants (AsHPPDm-F372A-F383W-02) into which the AsHPPDm-F372A-F383W-02 nucleotide sequence was introduced, the Arabidopsis thaliana T1 plants (DBN11726N) into which the control recombinant expression vector DBN11726N was introduced, and the wild-type Arabidopsis thaliana plants (CK) (18 days after sowing) were sprayed respectively with topramezone at three concentrations (100 g ai/ha (four-fold field concentration, 4×), 200 g ai/ha (eight-fold field concentration, 8×), and 0 g ai/ha (water, 0×)), isoxaflutole at three concentrations (140 g ai/ha (two-fold field concentration, 2×), 280 g ai/ha (four-fold field concentration, 4×), and 0 g ai/ha (water, 0×)), and mesotrione at three concentrations (210 g ai/ha (two-fold field concentration, […]), 420 g ai/ha (four-fold field concentration, 4×), and 0 g ai/ha (water, 0×)), to determine the tolerance of Arabidopsis thaliana to the herbicides. The degree of damage caused by the herbicide was measured for each plant according to the proportion of bleached leaf area (the proportion of bleached leaf area=bleached leaf area/total leaf area×100%) 7 days after spraying (7 DAT): the case where there is basically no bleached phenotype is defined as grade 0, the case where the proportion of bleached leaf area is less than 50% is defined as grade 1, the case where the proportion of bleached leaf area is more than 50% is defined as grade 2, and the case where the proportion of bleached leaf area is 100% grade is defined as grade 3.
# According to the method as described above in point 6 of Example 1, the aforementioned Arabidopsis thaliana T1 plants and wild-type Arabidopsis thaliana plants (CK) (18 days after sowing) were sprayed respectively with topramezone at three concentrations (25 g ai/ha (one-fold field concentration, 1×). 100 g ai/ha (four-fold field concentration, 4×), and 0 g ai/ha (water, 0×)), isoxaflutole at three concentrations (35 g ai/ha (half-fold field concentration, 0.5×). 70 g ai/ha (one-fold field concentration, 1×), and 0 g ai/ha (water, 0×)), and mesotrione at three concentrations (52.5 g ai/ha (half-fold field concentration, 0.5×), 105 g ai/ha (one-fold field concentration, 1×), and 0 g ai/ha (water, 0×)) to detect the tolerance of Arabidopsis thaliana to the herbicides.
# According to the method as described above in point 6 of Example 1, the aforementioned Arabidopsis thaliana T1 plants and wild-type Arabidopsis thaliana plants (CK) (18 days after sowing) were sprayed with topramezone at three different concentrations (i.e., 100 g ai/ha (four-fold field concentration, 4×), 200 g ai/ha (eight-fold field concentration, 8×) and 0 g ai/ha (water, 0×)), isoxaflutole at three different concentrations (i.e., 140 g ai/ha (two-fold field concentration, 2×), 280 g ai/ha (four-fold field concentration, 4×) and 0 g ai/ha (water, 0×)), and mesotrione at three different concentrations (i.e., 210 g ai/ha (two-fold field concentration, 2×), 420 g ai/ha (four-fold field concentration, 4×) and 0 g ai/ha (water, 0×)) respectively to detect the herbicide tolerance of Arabidopsis thaliana. […]
# [4] = mesotrione 210 g ai/ha (two-fold field concentration), 7 DAT, Table 3
# [5] = mesotrione 420 g ai/ha (4×), 7 DAT, Table 3
# [6] = isoxaflutole 140 g ai/ha (2×), 7 DAT, Table 2
# [7] = isoxaflutole 280 g ai/ha (4×), 7 DAT, Table 2
molecule,measurement,setting,value
B1,tolerance to mesotrione (in words),[1]; in vivo,different degrees of tolerance
same,Resistance evaluation,[1]; mesotrione 210 g ai/ha,Moderately
same,Scores,[1]; mesotrione 210 g ai/ha,31
same,Resistance evaluation,[1]; [4],moderately
same,Classification and statistics of the grade of pesticide damage Grade 0,[1]; mesotrione 210 g ai/ha,5
same,Classification and statistics of the grade of pesticide damage Grade 1,[1]; mesotrione 210 g ai/ha,7
same,Classification and statistics of the grade of pesticide damage Grade 2,[1]; mesotrione 210 g ai/ha,4
same,Classification and statistics of the grade of pesticide damage Grade 3,[1]; mesotrione 210 g ai/ha,0
same,Resistance evaluation,[1]; mesotrione 420 g ai/ha,Poorly resistant
same,Scores,[1]; mesotrione 420 g ai/ha,50
same,Resistance evaluation,[1]; [5],poorly resistant (poorly resistant plants (scores 34-67))
same,Classification and statistics of the grade of pesticide damage Grade 0,[1]; mesotrione 420 g ai/ha,0
same,Classification and statistics of the grade of pesticide damage Grade 1,[1]; mesotrione 420 g ai/ha,8
same,Classification and statistics of the grade of pesticide damage Grade 2,[1]; mesotrione 420 g ai/ha,8
same,Classification and statistics of the grade of pesticide damage Grade 3,[1]; mesotrione 420 g ai/ha,0
same,tolerance to mesotrione (resistance class),[1]; mesotrione at four-fold field concentration,poorly-resistant
same,tolerance to mesotrione (resistance class),[1]; mesotrione at two-fold field concentration,moderately-resistant
same,Classification and statistics of the grade of pesticide damage: Grade 0,[1]; [4],5
same,Classification and statistics of the grade of pesticide damage: Grade 1,[1]; [4],7
same,Classification and statistics of the grade of pesticide damage: Grade 2,[1]; [4],4
same,Classification and statistics of the grade of pesticide damage: Grade 3,[1]; [4],0
same,Classification and statistics of the grade of pesticide damage: Grade 0,[1]; [5],0
same,Classification and statistics of the grade of pesticide damage: Grade 1,[1]; [5],8
same,Classification and statistics of the grade of pesticide damage: Grade 2,[1]; [5],8
same,Classification and statistics of the grade of pesticide damage: Grade 3,[1]; [5],0
same,Scores,"[1]; pesticide damage score 0-100, mesotrione 210 g ai/ha (two-fold field concentration), 7 DAT, Table 3",31
same,Scores,"[1]; pesticide damage score 0-100, mesotrione 420 g ai/ha (4×), 7 DAT, Table 3",50
same,tolerance to isoxaflutole (in words),[2]; in vivo,different degrees of tolerance
same,Resistance evaluation,[2]; isoxaflutole 140 g ai/ha,Moderately
same,Scores,[2]; isoxaflutole 140 g ai/ha,33
same,Resistance evaluation,[2]; [6],moderately
same,Classification and statistics of the grade of pesticide damage Grade 0,[2]; isoxaflutole 140 g ai/ha,5
same,Classification and statistics of the grade of pesticide damage Grade 1,[2]; isoxaflutole 140 g ai/ha,6
same,Classification and statistics of the grade of pesticide damage Grade 2,[2]; isoxaflutole 140 g ai/ha,5
same,Classification and statistics of the grade of pesticide damage Grade 3,[2]; isoxaflutole 140 g ai/ha,0
same,Resistance evaluation,[2]; isoxaflutole 280 g ai/ha,Poorly
same,Scores,[2]; isoxaflutole 280 g ai/ha,67
same,Resistance evaluation,[2]; [7],poorly resistant (poorly resistant plants (scores 34-67))
same,Classification and statistics of the grade of pesticide damage Grade 0,[2]; isoxaflutole 280 g ai/ha,0
same,Classification and statistics of the grade of pesticide damage Grade 1,[2]; isoxaflutole 280 g ai/ha,0
same,Classification and statistics of the grade of pesticide damage Grade 2,[2]; isoxaflutole 280 g ai/ha,16
same,Classification and statistics of the grade of pesticide damage Grade 3,[2]; isoxaflutole 280 g ai/ha,0
same,tolerance to isoxaflutole (resistance class),[2]; isoxaflutole at four-fold field concentration,poorly-resistant
same,tolerance to isoxaflutole (resistance class),[2]; isoxaflutole at two-fold field concentration,moderately-resistant
same,Classification and statistics of the grade of pesticide damage: Grade 0,[2]; [6],5
same,Classification and statistics of the grade of pesticide damage: Grade 1,[2]; [6],6
same,Classification and statistics of the grade of pesticide damage: Grade 2,[2]; [6],5
same,Classification and statistics of the grade of pesticide damage: Grade 3,[2]; [6],0
same,Classification and statistics of the grade of pesticide damage: Grade 0,[2]; [7],0
same,Classification and statistics of the grade of pesticide damage: Grade 1,[2]; [7],0
same,Classification and statistics of the grade of pesticide damage: Grade 2,[2]; [7],16
same,Classification and statistics of the grade of pesticide damage: Grade 3,[2]; [7],0
same,Scores,"[2]; pesticide damage score 0-100, isoxaflutole 140 g ai/ha (2×), 7 DAT, Table 2",33
same,Scores,"[2]; pesticide damage score 0-100, isoxaflutole 280 g ai/ha (4×), 7 DAT, Table 2",67
same,Classification and statistics of the grade of pesticide damage: Grade 0,[3]; topramezone 100 g ai/ha (4×),16
same,Classification and statistics of the grade of pesticide damage: Grade 1,[3]; topramezone 100 g ai/ha (4×),0
same,Classification and statistics of the grade of pesticide damage: Grade 2,[3]; topramezone 100 g ai/ha (4×),0
same,Classification and statistics of the grade of pesticide damage: Grade 3,[3]; topramezone 100 g ai/ha (4×),0
same,Classification and statistics of the grade of pesticide damage: Grade 0,[3]; topramezone 200 g ai/ha (8×),16
same,Classification and statistics of the grade of pesticide damage: Grade 1,[3]; topramezone 200 g ai/ha (8×),0
same,Classification and statistics of the grade of pesticide damage: Grade 2,[3]; topramezone 200 g ai/ha (8×),0
same,Classification and statistics of the grade of pesticide damage: Grade 3,[3]; topramezone 200 g ai/ha (8×),0
same,Scores,[3]; topramezone 100 g ai/ha (4×),0
same,Scores,[3]; topramezone 200 g ai/ha (8×),0
same,Resistance evaluation,[3]; topramezone 100 g ai/ha (4×),highly resistant (highly resistant plants (scores 0-15))
same,Resistance evaluation,[3]; topramezone 200 g ai/ha (8×),highly resistant (highly resistant plants (scores 0-15))
same,tolerance to topramezone (resistance class),[3]; topramezone at four-fold or eight-fold field concentration,highly-resistant

# Source: patent US20250043302A1, “MUTATED HYDROXYPHENYLPYRUVATE DIOXYGENASE POLYPEPTIDE, AND CODING GENE AND USE THEREOF” (BEIJING DABEINONG BIOTECHNOLOGY CO., LTD., priority 2021, published 2025)
